Numbered stars: 1 amine (or outer) side, 2 acyl side, 3 side chain; on linkers, the order of the positions; unused ones are H or OH. Bridge positions count the residues as written; N and C are the ends. Side chains are listed from the residue outwards. Ends that are not written are not given here. * marks the point of attachment. C18 diacid = O=C(O)CCCCCCCCCCCCCCCCC(=O)*; C16 diacid = O=C(O)CCCCCCCCCCCCCCC(=O)*; γGlu = O=C(O)[C@H](CCC(=O)[*:2])N[*:1]
T1: human calcitonin receptor (human, UniProt P30988 25-474)
T1 sequence (looked up): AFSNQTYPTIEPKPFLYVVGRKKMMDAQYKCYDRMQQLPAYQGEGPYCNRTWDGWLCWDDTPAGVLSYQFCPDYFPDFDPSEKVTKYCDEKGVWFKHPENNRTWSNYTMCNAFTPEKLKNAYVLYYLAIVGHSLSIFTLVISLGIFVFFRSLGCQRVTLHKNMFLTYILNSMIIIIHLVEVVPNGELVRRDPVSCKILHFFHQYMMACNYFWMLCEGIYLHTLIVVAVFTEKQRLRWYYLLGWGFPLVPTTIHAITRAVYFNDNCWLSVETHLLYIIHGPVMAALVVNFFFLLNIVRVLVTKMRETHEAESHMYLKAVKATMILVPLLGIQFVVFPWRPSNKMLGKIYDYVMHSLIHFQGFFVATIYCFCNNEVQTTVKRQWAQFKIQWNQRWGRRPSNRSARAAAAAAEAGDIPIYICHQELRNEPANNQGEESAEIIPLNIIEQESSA


Target: T1, human calcitonin receptor
Assay: cell-based or functional assay

Binder	hCTR funct. EC50 (pM)
K([γGlu-C16 diacid])CNTATCATQRLANFLRHSSPNFGAIPSSTNVGHNTY-NH2 (disulfide 2-7; N-terminus assumed; SMILES CC[C@H](C)[C@H](NC(=O)[C@H](C)NC(=O)CNC(=O)[C@H](Cc1ccccc1)NC(=O)[C@H](CC(N)=O)NC(=O)[C@@H]1CCCN1C(=O)[C@H](CO)NC(=O)[C@H](CO)NC(=O)[C@H](Cc1c[nH]cn1)NC(=O)[C@H](CCCNC(=N)N)NC(=O)[C@H](CC(C)C)NC(=O)[C@H](Cc1ccccc1)NC(=O)[C@H](CC(N)=O)NC(=O)[C@H](C)NC(=O)[C@H](CC(C)C)NC(=O)[C@H](CCCNC(=N)N)NC(=O)[C@H](CCC(N)=O)NC(=O)[C@@H](NC(=O)[C@H](C)NC(=O)[C@@H]1CSSC[C@H](NC(=O)[C@@H](N)CCCCNC(=O)CC[C@H](NC(=O)CCCCCCCCCCCCCCC(=O)O)C(=O)O)C(=O)N[C@@H](CC(N)=O)C(=O)N[C@@H]([C@@H](C)O)C(=O)N[C@@H](C)C(=O)N[C@@H]([C@@H](C)O)C(=O)N1)[C@@H](C)O)C(=O)N1CCC[C@H]1C(=O)N[C@@H](CO)C(=O)N[C@@H](CO)C(=O)N[C@H](C(=O)N[C@@H](CC(N)=O)C(=O)N[C@H](C(=O)NCC(=O)N[C@@H](Cc1c[nH]cn1)C(=O)N[C@@H](CC(N)=O)C(=O)N[C@H](C(=O)N[C@@H](Cc1ccc(O)cc1)C(N)=O)[C@@H](C)O)C(C)C)[C@@H](C)O, synthetic peptide amide) [N^ε1-[(4S)-4-carboxy-4-(15-carboxypentadecanoylamino)butanoyl]-[Arg17,Pro21,Pro27,His34]-h-amylin]	2210
K([γGlu-C18 diacid])CNTATCATQRLANFLRHSSPNFGAIPSSTNVGHNTY-NH2 (disulfide 2-7; N-terminus assumed; SMILES CC[C@H](C)[C@H](NC(=O)[C@H](C)NC(=O)CNC(=O)[C@H](Cc1ccccc1)NC(=O)[C@H](CC(N)=O)NC(=O)[C@@H]1CCCN1C(=O)[C@H](CO)NC(=O)[C@H](CO)NC(=O)[C@H](Cc1c[nH]cn1)NC(=O)[C@H](CCCNC(=N)N)NC(=O)[C@H](CC(C)C)NC(=O)[C@H](Cc1ccccc1)NC(=O)[C@H](CC(N)=O)NC(=O)[C@H](C)NC(=O)[C@H](CC(C)C)NC(=O)[C@H](CCCNC(=N)N)NC(=O)[C@H](CCC(N)=O)NC(=O)[C@@H](NC(=O)[C@H](C)NC(=O)[C@@H]1CSSC[C@H](NC(=O)[C@@H](N)CCCCNC(=O)CC[C@H](NC(=O)CCCCCCCCCCCCCCCCC(=O)O)C(=O)O)C(=O)N[C@@H](CC(N)=O)C(=O)N[C@@H]([C@@H](C)O)C(=O)N[C@@H](C)C(=O)N[C@@H]([C@@H](C)O)C(=O)N1)[C@@H](C)O)C(=O)N1CCC[C@H]1C(=O)N[C@@H](CO)C(=O)N[C@@H](CO)C(=O)N[C@H](C(=O)N[C@@H](CC(N)=O)C(=O)N[C@H](C(=O)NCC(=O)N[C@@H](Cc1c[nH]cn1)C(=O)N[C@@H](CC(N)=O)C(=O)N[C@H](C(=O)N[C@@H](Cc1ccc(O)cc1)C(N)=O)[C@@H](C)O)C(C)C)[C@@H](C)O, synthetic peptide amide) [N^ε1-[(4S)-4-carboxy-4-(17-carboxyheptadecanoylamino)butanoyl]-[Arg17,Pro21,Pro27,His34]-h-amylin]	5850
